Assay results: article PMC10491200 (bioRxiv, 2023)

Molecular target: the molecule itself
Assay: cryo-EM structure

B1: human mGlu5 (21-872), metabotropic glutamate receptor subtype 5, in MSP2N2 lipid nanodisc (receptor)
chain: QSSERRVVAHMPGDIIIGALFSVHHQPTVDKVHERKCGAVREQYGIQRVEAMLHTLERINSDPTLLPNITLGCEIRDSCWHSAVALEQSIEFIRDSLISSEEEEGLVRCVDGSSSSFRSKKPIVGVIGPGSSSVAIQVQNLLQLFNIPQIAYSATSMDLSDKTLFKYFMRVVPSDAQQARAMVDIVKRYNWTYVSAVHTEGNYGESGMEAFKDMSAKEGICIAHSYKIYSNAGEQSFDKLLKKLTSHLPKARVVACFCEGMTVRGLLMAMRRLGLAGEFLLLGSDGWADRYDVTDGYQREAVGGITIKLQSPDVKWFDDYYLKLRPETNHRNPWFQEFWQHRFQCRLEGFPQENSKYNKTCNSSLTLKTHHVQDSKMGFVINAIYSMAYGLHNMQMSLCPGYAGLCDAMKPIDGRKLLESLMKTNFTGVSGDTILFDENGDSPGRYEIMNFKEMGKDYFDYINVGSWDNGELKMDDDEVWSKKSNIIRSVCSEPCEKGQIKVIRKGEVSCCWTCTPCKENEYVFDEYTCKACQLGSWPTDDLTGCDLIPVQYLRWGDPEPIAAVVFACLGLLATLFVTVVFIIYRDTPVVKSSSRELCYIILAGICLGYLCTFCLIAKPKQIYCYLQRIGIGLSPAMSYSALVTKTNRIARILAGSKKKICTKKPRFMSACAQLVIAFILICIQLGIIVALFIMEPPDIMHDYPSIREVYLICNTTNLGVVTPLGYNGLLILSCTFYAFKTRNVPANFNEAKYIAFTMYTTCIIWLAFVPIYFGSNYKIITMCFSVSLSATVALGCMFVPKVYIILAKPERNVRSAFTTSTVVRMHVGDGKSSSAASRSSSLVNLWKRRGSS
B1: binds.
